Each block holds one molecule with its values, some of them ahead of it.
Tests used:
[1] = biological target: ALP107-273 (internal region fragment of actinin-associated LIM protein, residues 107-273) (human); assay: SPR; Biacore 3000; ALP107-273 or peptide 3 immobilised by amine coupling on CM5; R1-R4 or R2-R3 as soluble analyte; 20 mM Tris pH 7.4, 150 mM NaCl, 0.005% P20; apparent Kd
[2] = biological target: T1, α-actinin rod domain, spectrin repeats 1–4 (R1-R4) of human α-actinin 2 (Homo sapiens, UniProt P35609); assay: SPR interaction with α-actinin rod R1-R4; format: binding; conditions: for Kd: SPR, 20 mM Tris pH 7.4, 150 mM NaCl, 0.005% P20
T1 construct: Rod fragments containing spectrin repeats 1–4 (residues 274–746); His-tag (cleaved yes); made in house; host or cells: Escherichia coli BL21(DE3)
Description: (§1) Internal fragments of human ALP (AF039018) and chicken ALP (AJ249218) were cloned into a modified pET24d vector (Novagen, Merck Biosciences, Schwalbach, Germany) as described earlier using BsmBI (NcoI)- NotI cloning sites. Rod fragments containing spectrin repeats 1–4 (residues 274–746) or repeats 2 and 3 (residues 371–637) of human α-actinin 2 have been described previously. A YFP-fusion of ALP107-273 was generated in a pEYFP-C1 vector (Clontech, BD Biosciences) at an EcoRI-BamHI restriction site. The deletion constructs of pEYFP-ALP107-273 were generated by PCR. The α-Actinin-CFP construct is described elsewhere. All constructs were verified by DNA sequencing.
(§2) ALP internal fragments and an α-actinin rod containing the spectrin repeats 1–4 (R1-R4) and a fragment containing spectrin repeats 2 and 3 (R2-R3) were expressed at +37°C for 3–4 h in Escherichia coli BL21(DE3) strain as previously described. Briefly, proteins were purified using nickel nitrilotriacetic acid-agarose (Qiagen) as a first step. The His-tag was removed by tobacco etch virus protease (Invitrogen). For further purification, size exclusion chromatography (Superdex 75 16/60 and 26/60 columns, Amersham Biosciences) for ALP, and ion exchange (ProteinPakQ 8HR columns, Waters) for α-actinin fragments were used. The molecular weight standards for the gel filtration were obtained from Bio-Rad Laboratories. For NMR analysis, ^15N-labelled ALP107-273 and ^15N^13C-labelled ALP107-273 were produced in general M9-media with supplements. Expression was induced with 1 mM isopropyl-1-thio-β-D-galactopyranoside (IPTG) at +37°C for 8 hrs in E. coli BL21(DE3) strain. Low molecular weight markers used in SDS-polyacrylamide electrophoresis were obtained from Amersham Biosciences. Five ALP peptides were purchased from EZBiolab Inc. (Westfield, IN, USA).
A Biacore 3000 system (Biacore, Uppsala, Sweden) was used for surface plasmon resonance (SPR) analysis. Ligand immobilization was performed via amine coupling to gold sensor chips (CM5). […]

[3] = biological target: α-actinin 2 rod domain, spectrin repeats 1-4 (R1-R4) (human) (UniProt P35609); assay: SPR; Biacore 3000; α-actinin rod fragment (R1-R4 or R2-R3) immobilised by amine coupling on CM5; ALP107-273 or ALP peptides as soluble analyte; 20 mM Tris pH 7.4, 150 mM NaCl, 0.005% P20; apparent Kd
[4] = biological target: T2, α-actinin spectrin repeats 2–3 (R2-R3) of human α-actinin 2 (Homo sapiens, UniProt P35609); assay: SPR interaction with α-actinin R2-R3; format: binding; conditions: Biacore 3000, R2-R3 immobilized, ALP107-273 as analyte
T2 construct: repeats 2 and 3 (residues 371–637) of human α-actinin 2; His-tag (cleaved yes); made in house; host or cells: Escherichia coli BL21(DE3)
Description: as §1
ALP internal fragments and an α-actinin rod containing the spectrin repeats 1–4 (R1-R4) and a fragment containing spectrin repeats 2 and 3 (R2-R3) were expressed at +37°C for 3–4 h in Escherichia coli BL21(DE3) strain as previously described. Briefly, proteins were purified using nickel nitrilotriacetic acid-agarose (Qiagen) as a first step. The His-tag was removed by tobacco etch virus protease (Invitrogen). For further purification, size exclusion chromatography (Superdex 75 16/60 and 26/60 columns, Amersham Biosciences) for ALP, and ion exchange (ProteinPakQ 8HR columns, Waters) for α-actinin fragments were used. The molecular weight standards for the gel filtration were obtained from Bio-Rad Laboratories. […]

[5] = tested on: U2OS cells, α-actinin in actin stress fibres; assay: Live cell localization of YFP fusion with α-actinin-CFP; format: cell-based, human; conditions: YFP fusion expressed with α-actinin-CFP in living U2OS cells
Description: as §1
Human osteosarcoma (U2OS) cells were maintained in Dulbecco's modified Eagle's medium (DMEM) supplemented with 10% fetal bovine serum (Hyclone), 2 mM L-glutamine, penicillin and streptomycin (Sigma-Aldrich). Transfected cells were re-plated on fibronectin (10 μg/ml) coated glass bottom dishes (MatTek). General growth medium was used as imaging medium. The time lapse images were acquired with an IX-71 inverted microscope (Olympus) equipped with a Polychrome IV monochromator (TILL Photonics) with the appropriate filters, an Andor iXon (Andor) camera, a heated sample environment (+37°C) and CO2-control. A PLAPON 60xO TIRFM 60x/1,45 (oil) objective (Olympus) was used. […]

[6] = Concentration reached after purification; format: physicochemical; conditions: purified protein fragment
Experimental: as §2

CHO cells, stress fibres = assay: Localization of YFP-ALP107-273 mutants at stress fibres; format: cell-based; conditions: YFP fused to ALP107-273 with deletions or mutations; CHO cells 24 h after transfection, 4 h on fibronectin; blinded scoring
Description: as §1
The pEYFP ALP107-273 and mutants were transfected into CHO cells as described previously. Following 24 hrs transfection, the cells were seeded for 4 hrs on coverslips coated with 10 μg/ml human plasma fibronectin (Sigma) and fixed with 4% paraformaldehyde in 140 mM NaCl, 10 mM Na-Phosphate pH 7.4. The coverslips were coded and the number of cells with YFP localization at stress fibres was counted by two observers who were blinded to the identity of the samples. At least 100 cells were scored from each coverslip, four coverslips were used per transfection, and the experiment was repeated at least three times.

[7] = biological target: T3, α-actinin 2 rod domain, spectrin repeats 1-4 (R1-R4) (human, UniProt P35609 274-746); assay: SPR; Biacore 3000; ALP107-273 or peptide 3 immobilised by amine coupling on CM5; R1-R4 or R2-R3 as soluble analyte; 20 mM Tris pH 7.4, 150 mM NaCl, 0.005% P20; apparent Kd; conditions: both partners purified
T3 construct: α-actinin 2, human, spectrin repeats 1-4, residues 274-746; also called α-actinin rod; α-actinin rod region; source: E. coli BL21(DE3), purified (Ni-NTA, TEV removal of the His-tag, ion exchange)
T3 sequence (P35609 274-746): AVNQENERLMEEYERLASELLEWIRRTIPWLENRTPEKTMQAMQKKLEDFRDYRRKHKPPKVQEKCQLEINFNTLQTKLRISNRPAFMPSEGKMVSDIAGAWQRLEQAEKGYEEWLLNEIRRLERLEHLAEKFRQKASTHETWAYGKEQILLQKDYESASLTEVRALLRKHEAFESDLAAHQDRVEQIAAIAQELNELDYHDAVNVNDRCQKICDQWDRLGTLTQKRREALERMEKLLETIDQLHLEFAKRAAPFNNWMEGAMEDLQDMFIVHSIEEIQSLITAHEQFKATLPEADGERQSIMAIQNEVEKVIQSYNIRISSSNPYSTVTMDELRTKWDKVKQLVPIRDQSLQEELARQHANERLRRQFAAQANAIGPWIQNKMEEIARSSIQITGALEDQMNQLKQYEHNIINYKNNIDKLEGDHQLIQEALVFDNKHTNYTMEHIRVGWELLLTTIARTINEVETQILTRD

T1 sequence (P35609 274-746): as above
α-actinin 2 rod domain, spectrin repeats 1-4 (R1-R4) (human), sequence (P35609 274-746): as above
T2 sequence (P35609 371-637): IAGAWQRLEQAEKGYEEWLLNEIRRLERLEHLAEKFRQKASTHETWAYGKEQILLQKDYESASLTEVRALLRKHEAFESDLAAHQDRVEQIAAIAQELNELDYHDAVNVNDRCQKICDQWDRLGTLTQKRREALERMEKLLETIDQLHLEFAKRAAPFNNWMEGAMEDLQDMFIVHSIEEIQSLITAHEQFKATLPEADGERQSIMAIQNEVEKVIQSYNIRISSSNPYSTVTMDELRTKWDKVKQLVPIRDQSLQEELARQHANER

Molecule: ALP107-273 (internal region fragment of actinin-associated LIM protein, residues 107-273) (domain or fragment)
Kd [3]: 0.27 µM

B1: ALP107-273: 167 residue construct of the human ALP internal region, residues 107–273; used as YFP fusion in cells (protein, UniProt Q53GG5 107-273, looked up, fragment)
chain: SEPQDGNYFEHKHNIRPKPFVIPGRSSGCSTPSGIDCGSGRSTPSSVSTVSTICPGDLKVAAKLAPNIPLEMELPGVKIVHAQFNTPMQLYSDDNIMETLQGQVSTALGETPLMSEPTASVPPESDVYRMLHDNRNEPTQPRQSGSFRVLQGMVDDGSDDRPAGTRS
modifications: YFP fusion
notes: 167 residue construct of the human ALP internal region, residues 107–273; used as YFP fusion in cells
Kd ([2]; Biacore 3000, CM5 amine coupling, R1-R4 immobilized, ALP107-273 as analyte): 0.27 µM
Kd ([2]; Biacore 3000, immobilized ALP107-273, soluble R1-R4): 4.5 µM
Kd [4]: 0.0068 µM
co-localization with α-actinin [5]: co-localized with α-actinin in the stress fibres
concentration to which the purified fragment could be concentrated [6]: up to 30 mg/ml

B2: YS197-198FA: YFP-ALP107-273 point mutant, conserved tyrosine and serine of ZM motif changed to phenylalanine and alanine (protein, UniProt Q53GG5 107-273, looked up, variant Y197F S198A)
chain: SEPQDGNYFEHKHNIRPKPFVIPGRSSGCSTPSGIDCGSGRSTPSSVSTVSTICPGDLKVAAKLAPNIPLEMELPGVKIVHAQFNTPMQLFADDNIMETLQGQVSTALGETPLMSEPTASVPPESDVYRMLHDNRNEPTQPRQSGSFRVLQGMVDDGSDDRPAGTRS
modifications: residues 107-273 YFP fusion
notes: YFP-ALP107-273 point mutant, conserved tyrosine and serine of ZM motif changed to phenylalanine and alanine
YFP localization at stress fibres (CHO cells, stress fibres): abrogated localization

Second part, the molecule after the results:

Kd [1]: 4.5 µM
Molecule: α-actinin 2 rod domain, spectrin repeats 1-4 (R1-R4) (from UniProt P35609 274-746) (domain or fragment)

interaction with the rod domain in SPR ([2]; comparison with peptide 3 (Fig 7D)): did not interact
Molecule: MNKPEQALLVQIHPLVTEPFMG [scrambled version of peptide 3, scrambled peptide 3 containing the same amino acids in random order, reference compound]

Kd [7]: 3 µM
B3: ALP peptide 3 (residues 175-196) (peptide)
peptide: PLEMELPGVKIVHAQFNTPMQL
notes: source: synthetic peptide, bought: EZBiolab Inc
